# Tests used:
# Format in all cases: biochemical
# [1] = GC-FID determination of reaction products of terpene synthases from FPP with magnesium or manganese
# Experimental: Enzyme assays for all recombinant proteins were done in triplicate using the GC vial method described by O'Maille et al. (Anal. Biochem. 335:[…] (2004). For enzyme assays where only product identification was needed, 10 μg of protein was used in a final volume of 500 μL of reaction buffer (25 mM HEPES, 10% glycerol, 5 mM DTT and 10 mM of either Mg^2+ or Mn^2+. Substrates (FPP and GPP) were added to a final reaction concentration of 100 μM. Vials were overlaid with 500 μL of hexane to trap volatile products and incubated at 30° C. for 2 h. Mixtures were vortexed for 1 min to extract all volatiles and the vials were centrifuged to separate the organic layer.
# Product mixtures were analysed by GC-MS in scan mode for product identification. A standard containing the three santalenes and α-trans-bergamotene was prepared by flash chromatography of 2 mL of neat S. album oil over silica and eluted in hexane. A final yield of 25 mg was resuspended in EtOAc and purity was confirmed by GC-FID with conditions described below. All mass spectra were compared to the NIST 2005 library and the literature. Retention indices were determined for all compounds using an n-alkane standard and compared to the literature (R. P. Adams, “Identification of essential oil components by gas chromatography/mass spectrometry,” Allured Publishing Corporation, Carol Stream, Ill. (1995)).
# (§1) GC-FID was performed on a Shimadzu GC2010 with a 30 m 0.25 mm ID, 0.25 μm film DB-WAX column with He as the carrier gas. Splitless injection (2 μL) was used for all analyses. Conditions were as follows: injector 200° C., detector 250° C., column flow rate 1 mL/min. Oven program: 40° C. for 3 min, then 8° C./min to 180° C., held 5 min, then 10° C./min to 220° C., held 10 min. Needle height was adjusted to only draw from the upper organic layer of all sample vials. GC-MS was performed on a Shimadzu GC2010 with the same DB-WAX column and using He as the carrier gas. Conditions were as follows: injector 200° C., MS interface 240° C., ion source 200° C. Oven program: 40° C. for 3 min, then 8° C./min to 180° C., held 5 min, then 10° C./min to 220° C., held 10 min. Solvent cut time was set to 5 min. For product identification, total ion monitoring was used, scanning from m/z 45 to m/z 300. For kinetic assays, single ion monitoring of the sesquiterpene base ions m/z 91, 93 and 94 were used. Likewise monoterpene base ions (m/z 69, 71 and 93) were monitored. An internal standard (isobutyl benzene, 30 μM) was added to the hexane used to overlay each reaction. Detector response factors were calculated based on the santalene standard prepared earlier and used to determine the product concentrations for kinetic analysis.
# [2] = SaSSy enzyme assay with FPP, GC-MS product analysis
# Experimental: Enzyme assays for both recombinant isoenzyme proteins P143 and S143 were done in duplicate using GC vials as per O'Maille, P. E., et al. (“A single-vial analytical and quantitative gas chromatography-mass spectrometry assay for terpene synthases,” Anal. Biochem. 335:210-217 (2004)). For each assay, 20 μL of protein (8 mg/mL) was added to 450 μL of reaction buffer containing 25 mM HEPES, 10% glycerol, 5 mM DTT and 10 mM of Mg^2+. 20 μL of substrates FPP and GPP (˜1 mg/mL) were added and the mixture gently shaken. Final enzyme concentration was 0.3 mg/mL. Vials were overlaid with 500 μL of pentane to trap volatile products and incubated at 30° C. for 2 h.
# (§2) The product mixture of the SaSSy enzyme was analysed on an Agilent 6890 GC with a 5973 MSD using helium as carrier gas. Peak identification was done using an HP5-MS capillary column (30 m, 0.25 mm ID, […]). Injector temperature was 240° C., detector temperature was set at 250° C., injection volume was 1 μL and column flow rate was 1 mL/min. Oven temperature program was as follows: oven program was held for 1 min at 40° C., then ramped at 7.5° C./min to 250° C. and held. All mass spectra were detected at 70 eV in multiple ion scan mode.
# The identities of products from SaSSy incubations were confirmed by comparison of mass spectra retention times to authentic sandalwood oil in the NIST 2005 library, see publications by Adams, R. P. (“Identification of essential oil components by gas chromatography/mass spectrometry,” Allured Publishing Corporation, Carol Stream, Ill. (1995)) and MassFinder (www.massfinder.com).
# The mass spectrum of the four compounds produced by the SaSSy enzyme (shown in FIG. 2A) are the same as those of natural β-santalene produced in sandalwood trees (see Adams (1995), cited above, for comparison profiles).
# [3] = SaSSy enzyme assay with GPP, GC-MS product analysis; conditions: GPP as substrate, Mn^2+
# Experimental: Enzyme assays for both recombinant isoenzyme proteins P143 and S143 were done in duplicate using GC vials as per O'Maille, P. E., et al. (“A single-vial analytical and quantitative gas chromatography-mass spectrometry assay for terpene synthases,” Anal. Biochem. 335:210-217 (2004)). […] 20 μL of substrates FPP and GPP (˜1 mg/mL) were added and the mixture gently shaken. Final enzyme concentration was 0.3 mg/mL. Vials were overlaid with 500 μL of pentane to trap volatile products and incubated at 30° C. for 2 h.
# as §2, with “mode. […]” for “mode.”
# [4] = GC-FID determination of reaction products of terpene synthases from FPP with magnesium or manganese; remark: listed apart in the source
# [5] = Steady-state enzyme kinetic assays
# Experimental: For determination of steady-state enzyme kinetic constants, conditions were as described previously except the enzyme concentration was kept at 10 nM. Substrate concentrations ranged from 1 uM to 100 uM, and reactions were incubated at 30° C. for exactly 5 mins. Reactions were quenched by the addition of 500 μL 0.5 M EDTA, pH 8.0 and vortexed as above.
# as §1
molecule,measurement,setting,value
"SaSSy: santalene synthase (terpene synthase) from Santalum album, gene SEQ ID NO:1, protein SEQ ID NO:2 (protein, listed as Santalum album, SaSSy Protein) MDSSTATAMTAPFIDPTDHVNLKTDTDASENRRMGNYKPSIWNYDFLQSLATHHNIVEERHLKLAEKLKGQVKFMFGAPMEPLAKLELVDVVQRLGLNHLFETEIKEALFSIYKDGSNGWWFGHLHATSLRFRLLRQCGLFIPQDVFKTFQNKTGEFDMKLCDNVKGLLSLYEASYLGWKGENILDEAKAFTTKCLKSAWENISEKWLAKRVKHALALPLHWRVPRIEARWFIEAYEQEANMNPTLLKLAKLDFNMVQSIHQKEIGELARWWVTTGLDKLAFARNNLLQSYMWSCAIASDPKFKLARETIVEIGSVLTVVDDGYDVYGSIDELDLYTSSVERWSCVEIDKLPNTLKLIFMSMFNKTNEVGLRVQHERGYNSIPTFIKAWVEQCKSYQKEARWFHGGHTPPLEEYSLNGLVSIGFPLLLITGYVAIAENEAALDKVHPLPDLLHYSSLLSRLINDIGTSPDEMARGDNLKSIHCYMNETGASEEVAREHIKGVIEENWKILNQCCFDQSQFQEPFITFNLNSVRGSHFFYEFGDGFGVTDSWTKVDMKSVLIDPIPLGEE",E-β-farnesene among reaction products (GC-FID),"[1]; FPP Mg, mean",1.7
same,Z-β-farnesene among reaction products (GC-FID),"[1]; FPP Mg, mean",0.8
same,epi-β-santalene among reaction products (GC-FID),"[1]; FPP Mg, mean",4.7
same,α-E-bergamotene among reaction products (GC-FID),"[1]; FPP Mg, mean",16.0
same,α-santalene among reaction products (GC-FID),"[1]; FPP Mg, mean",45.3
same,β-santalene among reaction products (GC-FID),"[1]; FPP Mg, mean",31.5
same,E-β-farnesene among reaction products (GC-FID),"[1]; FPP Mg, replicate 1",1.7
same,Z-β-farnesene among reaction products (GC-FID),"[1]; FPP Mg, replicate 1",0.7
same,epi-β-santalene among reaction products (GC-FID),"[1]; FPP Mg, replicate 1",4.6
same,α-E-bergamotene among reaction products (GC-FID),"[1]; FPP Mg, replicate 1",16.3
same,α-santalene among reaction products (GC-FID),"[1]; FPP Mg, replicate 1",46.4
same,β-santalene among reaction products (GC-FID),"[1]; FPP Mg, replicate 1",30.4
same,E-β-farnesene among reaction products (GC-FID),"[1]; FPP Mg, replicate 2",1.7
same,Z-β-farnesene among reaction products (GC-FID),"[1]; FPP Mg, replicate 2",1.0
same,epi-β-santalene among reaction products (GC-FID),"[1]; FPP Mg, replicate 2",5.1
same,α-E-bergamotene among reaction products (GC-FID),"[1]; FPP Mg, replicate 2",15.3
same,α-santalene among reaction products (GC-FID),"[1]; FPP Mg, replicate 2",43.8
same,β-santalene among reaction products (GC-FID),"[1]; FPP Mg, replicate 2",33.1
same,E-β-farnesene among reaction products (GC-FID),"[1]; FPP Mg, replicate 3",1.7
same,Z-β-farnesene among reaction products (GC-FID),"[1]; FPP Mg, replicate 3",0.7
same,epi-β-santalene among reaction products (GC-FID),"[1]; FPP Mg, replicate 3",4.3
same,α-E-bergamotene among reaction products (GC-FID),"[1]; FPP Mg, replicate 3",16.4
same,α-santalene among reaction products (GC-FID),"[1]; FPP Mg, replicate 3",45.6
same,β-santalene among reaction products (GC-FID),"[1]; FPP Mg, replicate 3",31.2
same,E-β-farnesene among reaction products (GC-FID),"[1]; FPP Mn, mean",7.6
same,Z-β-farnesene among reaction products (GC-FID),"[1]; FPP Mn, mean",0.5
same,epi-β-santalene among reaction products (GC-FID),"[1]; FPP Mn, mean",0.7
same,α-E-bergamotene among reaction products (GC-FID),"[1]; FPP Mn, mean",74.7
same,α-santalene among reaction products (GC-FID),"[1]; FPP Mn, mean",9.8
same,β-santalene among reaction products (GC-FID),"[1]; FPP Mn, mean",6.6
same,E-β-farnesene among reaction products (GC-FID),"[1]; FPP Mn, replicate 1",7.4
same,Z-β-farnesene among reaction products (GC-FID),"[1]; FPP Mn, replicate 1",0.6
same,epi-β-santalene among reaction products (GC-FID),"[1]; FPP Mn, replicate 1",0.9
same,α-E-bergamotene among reaction products (GC-FID),"[1]; FPP Mn, replicate 1",75.7
same,α-santalene among reaction products (GC-FID),"[1]; FPP Mn, replicate 1",9.5
same,β-santalene among reaction products (GC-FID),"[1]; FPP Mn, replicate 1",6.0
same,E-β-farnesene among reaction products (GC-FID),"[1]; FPP Mn, replicate 2",8.0
same,Z-β-farnesene among reaction products (GC-FID),"[1]; FPP Mn, replicate 2",0.5
same,epi-β-santalene among reaction products (GC-FID),"[1]; FPP Mn, replicate 2",0.8
same,α-E-bergamotene among reaction products (GC-FID),"[1]; FPP Mn, replicate 2",73.4
same,α-santalene among reaction products (GC-FID),"[1]; FPP Mn, replicate 2",9.9
same,β-santalene among reaction products (GC-FID),"[1]; FPP Mn, replicate 2",7.3
same,E-β-farnesene among reaction products (GC-FID),"[1]; FPP Mn, replicate 3",7.5
same,Z-β-farnesene among reaction products (GC-FID),"[1]; FPP Mn, replicate 3",0.5
same,epi-β-santalene among reaction products (GC-FID),"[1]; FPP Mn, replicate 3",0.5
same,α-E-bergamotene among reaction products (GC-FID),"[1]; FPP Mn, replicate 3",74.9
same,α-santalene among reaction products (GC-FID),"[1]; FPP Mn, replicate 3",10.1
same,β-santalene among reaction products (GC-FID),"[1]; FPP Mn, replicate 3",6.4
same,Relative % composition in oil produced by enzyme: E-α-bergamotol,[1]; GC-FID,16.0%
same,Relative % composition in oil produced by enzyme: β-santalol,[1]; GC-FID,31.5%
same,epi-β-santalene in product mixture,"[2]; FPP, Mg^2+ buffer",4.3%
same,α-santalene in product mixture,"[2]; FPP, Mg^2+ buffer",34.7%
same,α-trans-bergamotene in product mixture,"[2]; FPP, Mg^2+ buffer",11.1%
same,β-santalene in product mixture,"[2]; FPP, Mg^2+ buffer",41.3%
same,Relative % composition in oil produced by enzyme: E-α-bergamotol,[2]; four major components only,12.1%
same,Relative % composition in oil produced by enzyme: epi-β-santalol,[2]; four major components only,4.7%
same,Relative % composition in oil produced by enzyme: α-santalol,[2]; four major components only,38.0%
same,Relative % composition in oil produced by enzyme: β-santalol,[2]; four major components only,45.2%
same,products formed,[3],"a mixture of α-pinene, camphene, limonene and α-terpinolene, along with other monoterpene products"
same,Relative % composition in oil produced by enzyme: epi-β-santalol,[4],4.7%
same,Relative % composition in oil produced by enzyme: α-santalol,[4],45.3%
same,Kcat,[5]; FPP,0.0112 s⁻¹
same,Vmax,[5]; assays using FPP,0.42 µM/min

# Source: US9260728B2, “Terpene synthases from Santalum” (UNIVERSITY OF BRITISH COLUMBIA, priority 2009, dated 2016)
